Reference: patent US20220402983A1 (Janssen / Centocor, published 2022)
*1 amine or outer side, *2 acyl side, *3 side chain or, on linkers, in order; H or OH if unused. Bridges are numbered along the chain shown (N, C = ends). [ ]: non-standard residue; d: D form. The star is where a group is joined. (N-(imidazol-2-yl)methyl)Asn = N-(imidazol-2-yl)methyl-asparagine, O=C(C[C@H](N[*:1])C(=O)[*:2])NCc1ncc[nH]1; (N-(3-Pyz))Asn = N-pyrazol-3-yl-asparagine, O=C(C[C@H](N[*:1])C(=O)[*:2])Nc1cc[nH]n1; Trp(7-Me) = Cc1cccc2c(C[C@H](N)C(=O)O)c[nH]c12; 2Nal = N[C@@H](Cc1ccc2ccccc2c1)C(=O)O; AEF = NCCOc1ccc(C[C@H](N)C(=O)O)cc1; αMeY = C[C@](N)(Cc1ccc(O)cc1)C(=O)O; αMeF = C[C@](N)(Cc1ccccc1)C(=O)O; αMeE = C[C@](N)(CCC(=O)O)C(=O)O; Cit = NC(=O)NCCC[C@H](N)C(=O)O; αMeL = CC(C)C[C@](C)(N)C(=O)O; Pen = CC(C)(S)[C@H](N)C(=O)O; αMeK = C[C@](N)(CCCCN)C(=O)O; Ac6c = NC1(C(=O)O)CCCCC1; Thp = NC1(C(=O)O)CCOCC1; Abu = CC[C@H](N)C(=O)O; Aib = CC(C)(N)C(=O)O; Piv = CC(C)(C)C(=O)*; Tfa = O=C(C(F)(F)F)*

T1: human IL-23R (interleukin-23 receptor) (human, UniProt Q5VWK5 24-629)
T1 sequence (looked up): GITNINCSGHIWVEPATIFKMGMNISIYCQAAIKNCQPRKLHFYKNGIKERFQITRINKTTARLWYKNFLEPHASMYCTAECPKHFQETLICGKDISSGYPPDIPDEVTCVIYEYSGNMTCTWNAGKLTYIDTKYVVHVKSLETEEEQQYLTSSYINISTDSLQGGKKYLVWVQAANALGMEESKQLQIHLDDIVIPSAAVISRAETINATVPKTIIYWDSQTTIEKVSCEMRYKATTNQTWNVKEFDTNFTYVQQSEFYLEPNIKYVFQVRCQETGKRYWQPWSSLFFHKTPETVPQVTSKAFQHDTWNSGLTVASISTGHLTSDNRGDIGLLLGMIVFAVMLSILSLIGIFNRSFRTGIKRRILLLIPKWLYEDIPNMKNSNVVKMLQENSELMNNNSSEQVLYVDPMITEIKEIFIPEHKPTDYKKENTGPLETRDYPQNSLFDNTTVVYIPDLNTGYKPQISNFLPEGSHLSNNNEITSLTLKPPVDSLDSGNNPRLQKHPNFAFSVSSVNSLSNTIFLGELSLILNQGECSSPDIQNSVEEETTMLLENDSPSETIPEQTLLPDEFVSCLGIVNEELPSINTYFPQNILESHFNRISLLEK


The binders below were run against T1, human IL-23R (interleukin-23 receptor) (assay: cell-based or functional assay).

| Binder | PBMC pSTAT3 IC50 (nM) | pStat3 HTRF (nM), IC50, DB cells IL23R pSTAT3 cell assay |
| --- | --- | --- |
| Ac-[Pen]NT[Trp(7-Me)][Cit][Pen][AEF][2Nal][αMeK]K(Ac)N[Aib][dY]-NH2 (disulfide 1-6; SMILES CC(=O)NCCCC[C@H](NC(=O)[C@](C)(CCCCN)NC(=O)[C@H](Cc1ccc2ccccc2c1)NC(=O)[C@H](Cc1ccc(OCCN)cc1)NC(=O)[C@H]1NC(=O)[C@H](CCCNC(N)=O)NC(=O)[C@H](Cc2c[nH]c3c(C)cccc23)NC(=O)[C@H]([C@@H](C)O)NC(=O)[C@H](CC(N)=O)NC(=O)[C@@H](NC(C)=O)C(C)(C)SSC1(C)C)C(=O)N[C@@H](CC(N)=O)C(=O)NC(C)(C)C(=O)N[C@H](Cc1ccc(O)cc1)C(N)=O) [Compound No. 202] | – | 0.637 nM |
| Ac-[Pen]NT[Trp(7-Me)]K(Ac)[Pen][AEF][2Nal][Thp]K(Piv)N[Thp]-NH2 (disulfide 1-6; SMILES CC(=O)NCCCC[C@@H]1NC(=O)[C@H](Cc2c[nH]c3c(C)cccc23)NC(=O)[C@H]([C@@H](C)O)NC(=O)[C@H](CC(N)=O)NC(=O)[C@@H](NC(C)=O)C(C)(C)SSC(C)(C)[C@@H](C(=O)N[C@@H](Cc2ccc(OCCN)cc2)C(=O)N[C@@H](Cc2ccc3ccccc3c2)C(=O)NC2(C(=O)N[C@@H](CCCCNC(=O)C(C)(C)C)C(=O)N[C@@H](CC(N)=O)C(=O)NC3(C(N)=O)CCOCC3)CCOCC2)NC1=O) [Compound No. 141] | 3.7 nM | – |
| Ac-[Pen]NT[Trp(7-Me)]K(Ac)[Pen][AEF][2Nal][Thp]K(Piv)N[αMeF]-NH2 (disulfide 1-6; SMILES CC(=O)NCCCC[C@@H]1NC(=O)[C@H](Cc2c[nH]c3c(C)cccc23)NC(=O)[C@H]([C@@H](C)O)NC(=O)[C@H](CC(N)=O)NC(=O)[C@@H](NC(C)=O)C(C)(C)SSC(C)(C)[C@@H](C(=O)N[C@@H](Cc2ccc(OCCN)cc2)C(=O)N[C@@H](Cc2ccc3ccccc3c2)C(=O)NC2(C(=O)N[C@@H](CCCCNC(=O)C(C)(C)C)C(=O)N[C@@H](CC(N)=O)C(=O)N[C@@](C)(Cc3ccccc3)C(N)=O)CCOCC2)NC1=O) [Compound No. 139] | 6.6 nM | – |
| PentCO-[dR][Pen]NT[Trp(7-Me)]K(Ac)[Pen][AEF][2Nal][Thp]EN[αMeF]-NH2 (disulfide 2-7) [Compound No. 142] | 4.9 nM | – |
| Ac-[Pen]NT[Trp(7-Me)]K(Ac)[Pen][AEF][2Nal][αMeK]K(Ac)N[αMeY]-NH2 (disulfide 1-6; SMILES CC(=O)NCCCC[C@@H]1NC(=O)[C@H](Cc2c[nH]c3c(C)cccc23)NC(=O)[C@H]([C@@H](C)O)NC(=O)[C@H](CC(N)=O)NC(=O)[C@@H](NC(C)=O)C(C)(C)SSC(C)(C)[C@@H](C(=O)N[C@@H](Cc2ccc(OCCN)cc2)C(=O)N[C@@H](Cc2ccc3ccccc3c2)C(=O)N[C@@](C)(CCCCN)C(=O)N[C@@H](CCCCNC(C)=O)C(=O)N[C@@H](CC(N)=O)C(=O)N[C@@](C)(Cc2ccc(O)cc2)C(N)=O)NC1=O) [Compound No. 151] | 5.7 nM | – |
| Ac-[dR][Pen]QTWQ[Pen][AEF][2Nal][Thp]EN[(N-(imidazol-2-yl)methyl)Asn]-NH2 (disulfide 2-7; SMILES CC(=O)N[C@H](CCCNC(=N)N)C(=O)N[C@@H]1C(=O)N[C@@H](CCC(N)=O)C(=O)N[C@@H]([C@@H](C)O)C(=O)N[C@@H](Cc2c[nH]c3ccccc23)C(=O)N[C@@H](CCC(N)=O)C(=O)N[C@H](C(=O)N[C@@H](Cc2ccc(OCCN)cc2)C(=O)N[C@@H](Cc2ccc3ccccc3c2)C(=O)NC2(C(=O)N[C@@H](CCC(=O)O)C(=O)N[C@@H](CC(N)=O)C(=O)N[C@@H](CC(=O)NCc3ncc[nH]3)C(N)=O)CCOCC2)C(C)(C)SSC1(C)C) [Compound No. 137] | 14 nM | – |
| Ac-[dR][Pen]NT[Trp(7-Me)][Cit][Pen][AEF][2Nal][αMeL]EN[αMeF]-NH2 (disulfide 2-7; SMILES CC(=O)N[C@H](CCCNC(=N)N)C(=O)N[C@@H]1C(=O)N[C@@H](CC(N)=O)C(=O)N[C@@H]([C@@H](C)O)C(=O)N[C@@H](Cc2c[nH]c3c(C)cccc23)C(=O)N[C@@H](CCCNC(N)=O)C(=O)N[C@H](C(=O)N[C@@H](Cc2ccc(OCCN)cc2)C(=O)N[C@@H](Cc2ccc3ccccc3c2)C(=O)N[C@@](C)(CC(C)C)C(=O)N[C@@H](CCC(=O)O)C(=O)N[C@@H](CC(N)=O)C(=O)N[C@@](C)(Cc2ccccc2)C(N)=O)C(C)(C)SSC1(C)C) [Compound No. 149] | 2.3 nM | – |
| FlagTag-[dR][Pen]NT[Trp(7-Me)]K(Ac)[Pen][AEF][2Nal][Thp]EN[Thp]-NH2 (disulfide 2-7; also: FlagTag sequence not given here) [Compound No. 146] | 8.9 nM | – |

Second part, the binder after the results:

| PBMC pSTAT3 IC50 (nM) | pStat3 HTRF (nM), IC50, DB cells IL23R pSTAT3 cell assay | Binder |
| --- | --- | --- |
| 24 nM | – | Ac-[dR][Abu]QTWQC[AEF][2Nal][Ac6c][αMeE]NF[Aib][αMeK]-NH2 (thioether 2-7) [Compound No. 301] |
| 4.7 nM | – | Ac-[dR][Pen]NT[Trp(7-Me)]K(Ac)[Pen][AEF][2Nal][Thp][αMeE]N[αMeY]-NH2 (disulfide 2-7; SMILES CC(=O)NCCCC[C@@H]1NC(=O)[C@H](Cc2c[nH]c3c(C)cccc23)NC(=O)[C@H]([C@@H](C)O)NC(=O)[C@H](CC(N)=O)NC(=O)[C@@H](NC(=O)[C@@H](CCCNC(=N)N)NC(C)=O)C(C)(C)SSC(C)(C)[C@@H](C(=O)N[C@@H](Cc2ccc(OCCN)cc2)C(=O)N[C@@H](Cc2ccc3ccccc3c2)C(=O)NC2(C(=O)N[C@@](C)(CCC(=O)O)C(=O)N[C@@H](CC(N)=O)C(=O)N[C@@](C)(Cc3ccc(O)cc3)C(N)=O)CCOCC2)NC1=O) [Compound No. 150] |
| 21 nM | – | Ac-[dR][Pen]QTWQ[Pen][AEF][2Nal][Thp]EN[(N-(3-Pyz))Asn]-NH2 (disulfide 2-7; SMILES CC(=O)N[C@H](CCCNC(=N)N)C(=O)N[C@@H]1C(=O)N[C@@H](CCC(N)=O)C(=O)N[C@@H]([C@@H](C)O)C(=O)N[C@@H](Cc2c[nH]c3ccccc23)C(=O)N[C@@H](CCC(N)=O)C(=O)N[C@H](C(=O)N[C@@H](Cc2ccc(OCCN)cc2)C(=O)N[C@@H](Cc2ccc3ccccc3c2)C(=O)NC2(C(=O)N[C@@H](CCC(=O)O)C(=O)N[C@@H](CC(N)=O)C(=O)N[C@@H](CC(=O)Nc3cc[nH]n3)C(N)=O)CCOCC2)C(C)(C)SSC1(C)C) [Compound No. 133] |
| – | 12.7 nM | Ac-[dR][Abu]QT[Trp(7-Me)]K(Ac)C[AEF][2Nal][αMeK]K(Ac)N[αMeF]-NH2 (thioether 2-7) [Compound No. 201] |
| 2.6 nM | – | Ac-[Pen]NT[Trp(7-Me)]K(Ac)[Pen][AEF][2Nal][Thp]K(Tfa)N[Thp]-NH2 (disulfide 1-6; SMILES CC(=O)NCCCC[C@@H]1NC(=O)[C@H](Cc2c[nH]c3c(C)cccc23)NC(=O)[C@H]([C@@H](C)O)NC(=O)[C@H](CC(N)=O)NC(=O)[C@@H](NC(C)=O)C(C)(C)SSC(C)(C)[C@@H](C(=O)N[C@@H](Cc2ccc(OCCN)cc2)C(=O)N[C@@H](Cc2ccc3ccccc3c2)C(=O)NC2(C(=O)N[C@@H](CCCCNC(=O)C(F)(F)F)C(=O)N[C@@H](CC(N)=O)C(=O)NC3(C(N)=O)CCOCC3)CCOCC2)NC1=O) [Compound No. 140] |
| 7.6 nM | – | Ac-[Pen]NT[Trp(7-Me)]K(Ac)[Pen][AEF][2Nal][Thp]K(Tfa)N[αMeF]-NH2 (disulfide 1-6; SMILES CC(=O)NCCCC[C@@H]1NC(=O)[C@H](Cc2c[nH]c3c(C)cccc23)NC(=O)[C@H]([C@@H](C)O)NC(=O)[C@H](CC(N)=O)NC(=O)[C@@H](NC(C)=O)C(C)(C)SSC(C)(C)[C@@H](C(=O)N[C@@H](Cc2ccc(OCCN)cc2)C(=O)N[C@@H](Cc2ccc3ccccc3c2)C(=O)NC2(C(=O)N[C@@H](CCCCNC(=O)C(F)(F)F)C(=O)N[C@@H](CC(N)=O)C(=O)N[C@@](C)(Cc3ccccc3)C(N)=O)CCOCC2)NC1=O) [Compound No. 138] |
| 7 nM | – | Ac-[Pen]NT[Trp(7-Me)][Cit][Pen][AEF][2Nal][αMeK]K(Ac)N[Aib]-NH2 (disulfide 1-6; SMILES CC(=O)NCCCC[C@H](NC(=O)[C@](C)(CCCCN)NC(=O)[C@H](Cc1ccc2ccccc2c1)NC(=O)[C@H](Cc1ccc(OCCN)cc1)NC(=O)[C@H]1NC(=O)[C@H](CCCNC(N)=O)NC(=O)[C@H](Cc2c[nH]c3c(C)cccc23)NC(=O)[C@H]([C@@H](C)O)NC(=O)[C@H](CC(N)=O)NC(=O)[C@@H](NC(C)=O)C(C)(C)SSC1(C)C)C(=O)N[C@@H](CC(N)=O)C(=O)NC(C)(C)C(N)=O) [Compound No. 302] |
